The source of these data is the supplement of paper PMC10126150.

± gives the standard deviation of the averaged measurements.

The data set deals with ATP. Put plainly: switch fluorescence ratio, 500 uM ATP over buffer (Cy3 cluster intensity, sum of 5 cycles each) (fold (ratio)); higher = stronger signal-on switching upon ATP binding; sequences stand for … in TCGTCGGCAGCGTCAGATGTGTATAAGAGACAGTTTTTTTTTTTTTTTTTTTTTTTTT…TC. The note with it: aptamer strand: ATP DNA aptamer (quencher-CACCTGGGGGAGTATTGCGGAGGAAGG + anchor), 100 nM annealed; ATP concentration: 500 uM. In a few lines: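 Between each of five buffer/ATP cycles, the flow-cell was stripped with NaOH and re-annealed. Each cycle imaged Cy3-labelled switching-strand clusters, annealed to 100 nM quencher-labelled ATP aptamer on a modified Illumina MiSeq flow-cell, first in selection buffer and then after 15 min with 500 uM ATP at 22 °C. The fluorescence ratio is summed target-cycle over summed buffer-cycle Cy3 intensity per cluster, averaged per switch-domain sequence, with clusters outside 100-1000 RFU excluded.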
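Also: ATP exposure 15 min at 22 °C before imaging.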

With GCCGAGAAGT, the switch fluorescence ratio was 0.985 ± 0.027.

Turning to GATGAGGTAT, the switch fluorescence ratio was determined as 0.9899 ± 0.002.

Consider CACTTCCTTA, for which the switch fluorescence ratio was determined as 1.098 ± 0.0081.

TCGTTTTCGT: the switch fluorescence ratio was determined as 0.9787 ± 0.009.

As for AACTCTGGTT, the switch fluorescence ratio was found to be 0.968 ± 0.048.

As to GCGAGTCATT, the switch fluorescence ratio stood at 0.9845 ± 0.007.

With TATTCTGGGA, the switch fluorescence ratio was 0.9918 ± 0.0078.

Consider AATATTGTGG, for which the switch fluorescence ratio was 0.974 ± 0.019.

As to TTGTGGAATT, the switch fluorescence ratio came to 0.966 ± 0.02.

As for TCCAGGGTGC, the switch fluorescence ratio was 1.93 ± 0.37.

With GCAATGAGGG, the switch fluorescence ratio amounted to 1.14 ± 0.034.

Consider AATGAGTCG, for which the switch fluorescence ratio was found to be 0.991 ± 0.028.

On to CGGGGAGGTC, for which the switch fluorescence ratio was found to be 1.07 ± 0.072.

On to GATTGAGGGG, for which the switch fluorescence ratio amounted to 1.01 ± 0.017.

For TAGGTTTCAT, the switch fluorescence ratio came to 1.01 ± 0.014.

Consider AGGTGGGGGG, for which the switch fluorescence ratio stood at 1.01 ± 0.043.

Regarding GGGGTGCAGT, the switch fluorescence ratio was 0.992 ± 0.022.

GGGTTAAATG: the switch fluorescence ratio was 0.989 ± 0.028.

Regarding GCGTCAGGGG, the switch fluorescence ratio was determined as 1.03 ± 0.086.

With TAGGGCGTGC, the switch fluorescence ratio turned out to be 0.9973 ± 0.0061.

For the sequence AAGGGTCAGG, the switch fluorescence ratio stood at 1.02 ± 0.017.

Consider CAGGGGAAGC, for which the switch fluorescence ratio turned out to be 0.999 ± 0.011.

Turning to GGATTTTTAG, the switch fluorescence ratio was determined as 0.99134 ± 0.00052.

As to GAAAGGGGGT, the switch fluorescence ratio was 0.991 ± 0.027.

For ATGTCGAGGT, the switch fluorescence ratio turned out to be 1.01 ± 0.035.

On to ATGTACGGAT, for which the switch fluorescence ratio worked out at 1.02 ± 0.059.

For TGGGAGGGAT, the switch fluorescence ratio is 0.989 ± 0.021.

Consider GCGTAATGGT, for which the switch fluorescence ratio was determined as 1.095 ± 0.0043.

For the sequence AAAAGCCCTT, the switch fluorescence ratio turned out to be 1.096 ± 0.0043.

With AGATTGTGCA, the switch fluorescence ratio stood at 0.963 ± 0.011.

Regarding CGGGAAATCC, the switch fluorescence ratio was determined as 1.042 ± 0.0085.

On to ATCAATGACG, for which the switch fluorescence ratio was 0.95 ± 0.059.

On to AGGGGCCTGT, for which the switch fluorescence ratio came out at 0.962 ± 0.037.

With CAAGTTCTGC, the switch fluorescence ratio was found to be 0.97 ± 0.053.

As to CGTGATGATG, the switch fluorescence ratio was found to be 0.982 ± 0.06.

CTATAGGTCA: the switch fluorescence ratio turned out to be 0.981 ± 0.036.

As for ACTAGGTATG, the switch fluorescence ratio is 1.01 ± 0.032.

For the sequence TAGGGGATAC, the switch fluorescence ratio was 1.06 ± 0.01.

For the sequence AAAACTTTAT, the switch fluorescence ratio came to 0.978 ± 0.013.

GGTATAAGGT: the switch fluorescence ratio is 1.006 ± 0.01.

Take TGTGATGTCA: the switch fluorescence ratio is 1.01 ± 0.016.

Regarding TTGTGATGGA, the switch fluorescence ratio was 0.9896 ± 0.008.

For CCGGTACTAT, the switch fluorescence ratio was determined as 1.167 ± 0.0092.

With AACTTACACG, the switch fluorescence ratio worked out at 1.2 ± 0.018.

For the sequence AAACTCTTTT, the switch fluorescence ratio worked out at 0.978 ± 0.039.

Regarding TCGTGGCTGT, the switch fluorescence ratio was determined as 1 ± 0.042.

On to TTGACGAGCG, for which the switch fluorescence ratio is 1.13 ± 0.051.

As to AGGGGGACGG, the switch fluorescence ratio was found to be 0.987 ± 0.023.

For TATGCTTGA, the switch fluorescence ratio stood at 0.986 ± 0.036.

On to AGGGGAAGTC, for which the switch fluorescence ratio stood at 0.953 ± 0.015.

For TAATAATTCG, the switch fluorescence ratio was found to be 1.01 ± 0.012.

For the sequence GTGGTGGGTG, the switch fluorescence ratio was determined as 1 ± 0.091.

Turning to GGGGGAGACG, the switch fluorescence ratio was 1.03 ± 0.075.

Turning to GTAACGGAAC, the switch fluorescence ratio is 1.13 ± 0.018.

Turning to TGAAAAACCG, the switch fluorescence ratio was 1.14 ± 0.12.

As for GGGGGGGGTT, the switch fluorescence ratio was 1 ± 0.042.

With TTGGCTTTGA, the switch fluorescence ratio turned out to be 0.9893 ± 0.0097.

GTGTCTCCAG: the switch fluorescence ratio came out at 1.03 ± 0.049.

For TTAAAGTGAG, the switch fluorescence ratio came to 0.99 ± 0.037.

With AATGGGGGTT, the switch fluorescence ratio was determined as 1.02 ± 0.037.

Consider CTGGTGACTG, for which the switch fluorescence ratio stood at 0.986 ± 0.096.

With TCGATAGTTC, the switch fluorescence ratio was found to be 1.03 ± 0.028.

Regarding AGCGTCGCAG, the switch fluorescence ratio stood at 0.9715 ± 0.0087.

With AGGACCGTTT, the switch fluorescence ratio was 0.991 ± 0.016.

Turning to AAGGGCGGGG, the switch fluorescence ratio worked out at 1.01 ± 0.019.

TACGATAATC: the switch fluorescence ratio came out at 1.146 ± 0.011.

Consider GGTGATAGCT, for which the switch fluorescence ratio stood at 0.987 ± 0.076.

In the case of ATTGAATATT, the switch fluorescence ratio turned out to be 0.9935 ± 0.0015.

In the case of TCCTTTTAAT, the switch fluorescence ratio came out at 1.045 ± 0.0012.

Take TGGAGTCCAT: the switch fluorescence ratio amounted to 1.026 ± 0.0098.

Regarding GTTTATGCAG, the switch fluorescence ratio was 0.968 ± 0.017.

Regarding AAGCTCTTGT, the switch fluorescence ratio came to 1.01 ± 0.03.

For TATGTGGAGT, the switch fluorescence ratio was 0.9924 ± 0.0089.

As to ATTTTGGTCG, the switch fluorescence ratio is 0.982 ± 0.082.

As to AGGCGGATCG, the switch fluorescence ratio worked out at 0.99 ± 0.085.

Turning to GGTCGAGAGG, the switch fluorescence ratio turned out to be 0.971 ± 0.03.

On to ATATAGTTTT, for which the switch fluorescence ratio worked out at 0.953 ± 0.011.

Take TTTACTCGCG: the switch fluorescence ratio is 1 ± 0.038.

Consider GGCTGGCGGC, for which the switch fluorescence ratio worked out at 0.984 ± 0.026.

As to CCCTTAGTGC, the switch fluorescence ratio turned out to be 1.14 ± 0.022.

On to GGGGGGTGAC, for which the switch fluorescence ratio was 1 ± 0.035.

With ATGGGGTATT, the switch fluorescence ratio was 0.989 ± 0.015.

In the case of TATGTAAACA, the switch fluorescence ratio is 1 ± 0.025.

As for TGGGTAGTAA, the switch fluorescence ratio turned out to be 0.993 ± 0.016.

As to TATTTGGTTA, the switch fluorescence ratio was 1.024 ± 0.006.

For the sequence ATTTATGAAA, the switch fluorescence ratio was 1.04 ± 0.054.

For GGTAAGTCTA, the switch fluorescence ratio came out at 0.9832 ± 0.0059.

TGACGAGCGG: the switch fluorescence ratio turned out to be 1.04 ± 0.061.

TGAATGGTCG: the switch fluorescence ratio is 1.05 ± 0.036.

Regarding GTTGGAATCG, the switch fluorescence ratio was 0.991 ± 0.018.

With GGTTTTGGAT, the switch fluorescence ratio is 0.986 ± 0.019.

Take TTGGAAAATT: the switch fluorescence ratio amounted to 1.21 ± 0.35.

For TAAAACCTGA, the switch fluorescence ratio is 1.17 ± 0.054.

Regarding GGAAGGGGAT, the switch fluorescence ratio was found to be 0.9986 ± 0.0061.

Consider GGGTGGGCCC, for which the switch fluorescence ratio worked out at 0.995 ± 0.041.

With GAATGGATGC, the switch fluorescence ratio amounted to 1.01 ± 0.0064.

For GACTTGAATT, the switch fluorescence ratio was found to be 0.99 ± 0.034.

For TTGGGGGAAT, the switch fluorescence ratio amounted to 0.992 ± 0.026.

As for TGCGCAAGGG, the switch fluorescence ratio came out at 1.27 ± 0.31.

Regarding GGGTCGAGGG, the switch fluorescence ratio was determined as 0.986 ± 0.027.

Turning to GTGTAACGTT, the switch fluorescence ratio amounted to 1 ± 0.042.

Regarding AAGAGGACGC, the switch fluorescence ratio turned out to be 1 ± 0.066.

With GGTATCCGGC, the switch fluorescence ratio was 1.03 ± 0.088.

On to GCTGACGGGT, for which the switch fluorescence ratio is 0.976 ± 0.018.

On to GTTTGGTCTT, for which the switch fluorescence ratio turned out to be 0.95 ± 0.017.

Take TCGCTATAGC: the switch fluorescence ratio came out at 1.02 ± 0.067.

Regarding TGGTATCTTA, the switch fluorescence ratio is 1.026 ± 0.0098.

For the sequence GGGTTGGGTG, the switch fluorescence ratio came to 1.01 ± 0.042.

Take TTTAGAATCC: the switch fluorescence ratio came to 1.03 ± 0.019.

Turning to CGAGTTCCTT, the switch fluorescence ratio stood at 1.02 ± 0.014.

TGATCCTATG: the switch fluorescence ratio was found to be 0.992 ± 0.016.

In the case of CATATTTTGT, the switch fluorescence ratio was determined as 1.0216 ± 0.00042.

On to GATGCAGCAA, for which the switch fluorescence ratio was found to be 1.22 ± 0.062.

Consider AGAAATATAT, for which the switch fluorescence ratio is 1.23 ± 0.35.

As for ATGTGGCCTG, the switch fluorescence ratio stood at 0.988 ± 0.056.

Take CGTCTTGGAA: the switch fluorescence ratio was determined as 1.01 ± 0.013.

Consider GGATTAGGTT, for which the switch fluorescence ratio came to 1.01 ± 0.011.

In the case of TATAAAGTTG, the switch fluorescence ratio is 1.01 ± 0.062.

TTTGACGAAT: the switch fluorescence ratio is 1.012 ± 0.0081.

With TAAGGTGCTC, the switch fluorescence ratio is 1.1 ± 0.01.
